Data taken from patent publication US11680110B2, “Three-dimensional structure-based humanization method” (Hoffmann-La Roche Inc., dated 2023).

Key:
recombinant human IL-17 [1] = target: T1, recombinant human IL-17 (human, UniProt Q16552); test: SPR, BIAcore 3000, antibody captured, antigen injected
T1 sequence: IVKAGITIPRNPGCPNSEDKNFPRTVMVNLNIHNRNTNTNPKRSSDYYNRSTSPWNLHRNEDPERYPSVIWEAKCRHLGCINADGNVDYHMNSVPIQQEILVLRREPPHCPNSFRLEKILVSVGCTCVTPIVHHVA

recombinant human IL-17 [2] = target: T1, recombinant human IL-17
recombinant human IL-17 [3] = target: T1, recombinant human IL-17; test: SPR, BIAcore 3000, antibody captured by anti-human IgG, antigen injected

B1: murine anti-IL17 antibody (antibody, V domains shown)
VH: QVQLKESGPGLVAPSQSLSITCTVSGFSLDSYGVHWVRQPPGKGLEWLVVIWSDGTTTYNSALKSRLSITKDNSKSQVFLKMNSLQTDDTAIYYCARDTHYRLYYYAMDYWGQGTSVTVSS
VL: DVVMTQTPLSLPVSLGDQASISCRSSQSLVHSNGDTYFHWYLQKPGQSPKLLIYKVSNRFSGVPDRFSGSGSGTDFTLKINRVEAEDLGVYFCSQTTHAPFTFGSGTKLEIK
Kd (recombinant human IL-17 [1]): 0.05 nM | Neutralization in NHDF, IL-6 IC50 (recombinant human IL-17 [2]): 0.21 nM

B2: chimeric anti-IL17 antibody (antibody, V domains shown)
VH: B1 VH
VL: B1 VL
Kd (recombinant human IL-17 [3]): 0.03 nM
